Results published in the supplement of paper PMC9170038.

Experiments:
MS2 coat protein [1] = experiment: apparent KD of MS2 coat protein; higher = weaker reporter binding; details: Eterna round: R107
Procedure: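 RNA-MaP round R107: designed RNA switches with theophylline, tryptophan, arginine or FMN aptamers are transcribed on-chip within common flanks. They are titrated with SNAP-549-labelled MS2 coat protein in RNA-MaP buffer (100 mM Tris pH 7.5, 80 mM KCl, 4 mM MgCl2), without ligand or with the indicated ligand. Median apparent KD per design.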

MS2 coat protein [2] = experiment: apparent KD of MS2 coat protein; designed switch direction (-1 OFF switch, 1 ON switch): 1; higher = weaker reporter binding
Procedure, shortened: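 SNAP-549-labelled MS2 coat protein was titrated, doubling from 0.7 or 1.5 nM to 3 µM, over designed RNA switches transcribed on Illumina chips by stalled E. coli RNA polymerase. Runs were done without input, with 200 uM small-molecule ligand, or with an oligonucleotide input. Apparent KD is the per-design median over clusters of curve-fitted normalised fluorescence.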

[3] = input ligand: theophylline 20 uM
[4] = input ligand: theophylline 2 mM
[5] = input ligand: tryptophan 2.4 mM
[6] = input ligand: microRNA oligo, concentration not stated
[7] = Eterna round: R95, input ligand: FMN 200 uM
[8] = Eterna round: R95, input ligand: microRNA oligo, concentration not stated
[9] = Eterna round: R95, input ligand: none

| Sequence | apparent KD of MS2 coat protein (MS2 coat protein [1]; input ligand: arginine 13.2 mM) | apparent KD of MS2 coat protein (MS2 coat protein [1]; [3]) | apparent KD of MS2 coat protein (MS2 coat protein [2]; input ligand: FMN 200 uM) | apparent KD of MS2 coat protein (MS2 coat protein [2]; [6]) | apparent KD of MS2 coat protein (MS2 coat protein [2]; input ligand: none) | further results |
| --- | --- | --- | --- | --- | --- | --- |
| GGUGGACUUUCGGCCGCCACUGAGAGAGUCGUGUGAACAUGAGGAUCACCCAUGUAAUAUAUAUACAGGACCGGGAGGGUUGUCC [4.O] | 0.0206 µM | 0.0287 µM |  |  |  | apparent KD of MS2 coat protein (MS2 coat protein [1]; [4]): 0.025 µM |
| ACAUGAGGAUCACCCAUGUUUGAUGUUCCUCGAGGACCGGUACGGCCGCCACUCGAACGAGUGGCACGCGAGUGCGCACUCGCGU [aTa] | 0.0143 µM | 0.0199 µM |  |  |  | apparent KD of MS2 coat protein (MS2 coat protein [1]; input ligand: none): 0.0113 µM; apparent KD of MS2 coat protein (MS2 coat protein [1]; [4]): 0.0156 µM; apparent KD of MS2 coat protein (MS2 coat protein [1]; [5]): 0.0136 µM |
| CCUGCGUUUCUUUUCUUUCGCAGGAAUGAUACCAGUAGGGAAACCUACCCUUGGCAGCAUGGGACAUGAGGAUCACCCAUGUAAU [SSThA NP+V+V2 #2] | 0.255 µM | 0.346 µM |  |  |  | apparent KD of MS2 coat protein (MS2 coat protein [1]; [5]): 0.408 µM |
| UCGCUCUGGGUGAAUCCCAGAGAUGUGGAAGGAGCGGAGGAAACUCCAGGUAGGUCGCCAUCGAACAUGAGGAUCACCCAUGUAC [Same State - Arginine A (Freestyle 28)] | 0.0356 µM | 0.0607 µM |  |  |  | apparent KD of MS2 coat protein (MS2 coat protein [1]; input ligand: none): 0.0568 µM; apparent KD of MS2 coat protein (MS2 coat protein [1]; [4]): 0.0664 µM; apparent KD of MS2 coat protein (MS2 coat protein [1]; [5]): 0.0464 µM |
| AGACGAGAAGAGGUUUACCCAUGUACAGAAGGAGCGUCGUUGACGACAGGUAGGUCGCUGGAAACAUGAGGAUCACCCAUGUUGA [#06 Exclusion - Arginine A] | 0.0274 µM | 0.0491 µM |  |  |  | apparent KD of MS2 coat protein (MS2 coat protein [1]; input ligand: none): 0.0408 µM; apparent KD of MS2 coat protein (MS2 coat protein [1]; [4]): 0.0597 µM; apparent KD of MS2 coat protein (MS2 coat protein [1]; [5]): 0.0483 µM |
| GGUUACUCUACGGCCGCCACUGGGCAUGUAAAUAACAUGAGGAUCACCCAUGUGGAAUAAAAUUACAGGACCGGGUAGUGUAACC [Tryptophan B 22] | 0.105 µM | 0.27 µM |  |  |  | apparent KD of MS2 coat protein (MS2 coat protein [1]; [4]): 0.352 µM |
| AGUCCAGCCUGAGCUGGACAAAAGCAUGUACAUGAGGAUCACCCAUGUUCAUGUACAAGCUUUUUGCUCGUCUUGCC [salish99_208a_r3_107x] (Eterna round: R96, puzzle: Sensor for hsa-mir-208a) |  |  | 0.774 µM | 0.0155 µM | 0.623 µM |  |
| AUACCAUCGGGAGGAUAUGGCACCUUAUUGGUGCCAGAAGGUCUAACAUGAGGAUCACCCAUGUGGGAGUGGUCUAAUGACCAC [Eli NG1ss - 87] (Eterna round: R96, puzzle: Same State NG 1) |  |  | 0.144 µM | 0.127 µM | 0.186 µM |  |
| GGAGCCGGCACCGAGGAUAUUCAUAUUAAAACAUGAGGAUCACCCAUGUAGGCCAGAAGGCCUUGGGAGAAGGCGGAUCGGCUCA [Xeonanis - 6] (puzzle: Same State 2) |  |  |  |  |  | apparent KD of MS2 coat protein (MS2 coat protein [2]; [7]): 0.0295 µM; apparent KD of MS2 coat protein (MS2 coat protein [2]; [8]): 0.376 µM; apparent KD of MS2 coat protein (MS2 coat protein [2]; [9]): 0.491 µM |
| AUUUCUAAUGCAGGAUAUGAUUAACAUGAGGAUCACCCAUGUGGUGUUGUGAGUAAGGAGAGUGAUCAGAAGGGCAUUUUUUUU [JMF's solution 99] (Eterna round: R96, puzzle: Same State NG 2) |  |  | 0.915 µM | 0.428 µM | 0.579 µM |  |
| AUAAAACAUGAGGAUCACCCAUGUCUACAAAGUCGAGGAUAUGGGCAAAUAAUAUAAGAACCAGAAGGCGAAUAAU [SS1 Teenbexe 1] (puzzle: Same State 1) |  |  |  |  |  | apparent KD of MS2 coat protein (MS2 coat protein [2]; [7]): 0.0542 µM; apparent KD of MS2 coat protein (MS2 coat protein [2]; [8]): 0.565 µM; apparent KD of MS2 coat protein (MS2 coat protein [2]; [9]): 14.4 µM |
| UUGAAGAAUUAAGGAUAUCGAGUCAAGAUGUUAAACAUGAGGAUCACCCAUGUGGGUUGCGGUAUCGAGAAGGUAAAUAACAAG [Mat - Same State NG 2 - JL mod - D53] (Eterna round: R96, puzzle: Same State NG 2) |  |  | 0.0233 µM | 0.0236 µM | 0.0382 µM |  |
| GAAUAAAUGAUAGGAUAUACAUGAGGAAUUCUCGUAGAAGGAUCAUGACAUGAGGAUCACCCAUGUAACGCUCGAAAGAGCGUA [Mat - Same State NG 1 - JL mod - D41] (Eterna round: R96, puzzle: Same State NG 1) |  |  | 0.607 µM | 0.733 µM | 0.928 µM |  |
| GAGGGACAUGAGGAUCACCCAUGUGGAGGGAGUAAAGGAUAUUAGUGUGGGAAAGUAGGGUAAGAAGGUUGAUUGG [JR_SS1_Sub084] (puzzle: Same State 1) |  |  |  |  |  | apparent KD of MS2 coat protein (MS2 coat protein [2]; [7]): 0.103 µM; apparent KD of MS2 coat protein (MS2 coat protein [2]; [8]): 0.0749 µM; apparent KD of MS2 coat protein (MS2 coat protein [2]; [9]): 0.209 µM |
| GCUACAUGAGGAUCACCCAUGUGUGCGUGGGAGUGAGUGGCUUAGGAUAUCUAUGACUUGAGUUGAGAGAAGGAGGAUUGCUGU [SS-NG3-LRO12] (Eterna round: R96, puzzle: Same State NG 3) |  |  | 0.105 µM | 0.0826 µM | 0.118 µM |  |
| GAGCCAGUCCGAGGAUAUUACAUGAGGAUCACCCAUGUAGGCUCAGAAAAGAAAAGAGAGCCUUGGGAGAAGGCGGACUGGCUC [Xeonanisa<<9] (Eterna round: R96, puzzle: Same State NG 2) |  |  | 0.00819 µM | 0.0201 µM | 0.0391 µM |  |
| ACUCUCACAGUAGGAUAUGUAGGAUAUGCCUACAUGAGGAUCACCCAUGUAAACAUGGCAGAAGGACAGAAGGACUUACAUUGG [pwkr ssNG2 2FMN + 1F5.2] (Eterna round: R96, puzzle: Same State NG 2) |  |  | 0.0317 µM | 0.197 µM | 0.408 µM |  |
| AGUCCAGCGAAAGCUGGACAAAAGCAUGUACAUGAGGAUCACCCAUGUUCAUGUACAAGCUUUUUGCUCGUUUUAAA [JL mod - D95 - 15] (puzzle: Sensor for hsa-mir-208a) |  |  |  |  |  | apparent KD of MS2 coat protein (MS2 coat protein [2]; [7]): 0.59 µM; apparent KD of MS2 coat protein (MS2 coat protein [2]; [8]): 0.0135 µM; apparent KD of MS2 coat protein (MS2 coat protein [2]; [9]): 0.643 µM |
